According to patent US20220143136A1, “USE OF ANNEXINS IN PREVENTING AND TREATING MUSCLE MEMBRANE INJURY” (NORTHWESTERN UNIVERSITY, priority 2018, published 2022):
Entries after “also recorded” stand apart in the source; their conditions may differ.

Experiments:
Assay type in all cases: cell-based, mouse
myofibers = test: Annexin repair cap formation after laser injury at multiple Ca2+ concentrations; conditions: fluorescently tagged annexin expressed in myofibers; Ca2+ 0-2 mM; modified Hill equation
Method: (§1) Electroporation, myofiber isolation, laser injury, cap and vesicle measurement. Flexor digitorum brevis (FDB) fibers were transfected with endo-free plasmid DNA by in vivo electroporation. Methods were described previously in (Demonbreun and McNally, 2015; Demonbreun et al., 2016b; DiFranco et al., 2009). Z-stack projections were acquired from consecutive acquisitions after the final time-lapse frame, approximately 4 minutes post damage, with a […] step size between slices. Z-stack renderings were constructed in FIJI. Measurement of the cap area and feret diameter were conducted from a single slice near the middle of the z-stack using FIJI imaging tools. Fibers expressing similar levels of tagged or GCaMP5G protein were compared. GCaMP5G Ca^2+ fluorescence was measured from the acquired timelapse images, using a standard rectangular ROI, placed inside the myofiber below the site of damage using FIJI. Fluorescence was expressed as F/F0. External vesicle number and GCaMP5G area were measured from endpoint z-stacks and max projection images using FIJI. Vesicles were considered external if they were found outside the sarcolemma assessed in brightfield and fluorescent channels. All measurements were acquired from myofibers isolated from at least n≥3 mice, n≥3 myofibers per mouse.
Calcium kinetics. FDB muscle was electroporated and isolated as described above. Myofibers were damaged in Ringers solution with Ca^2+ concentrations of 2 mM, 1 mM, 0.5 mM, 0.25 mM, 0.175 mM, 0.1 mM, 0.050 mM, and 0 mM. EDTA was added as a Ca^2+ chelating agent in only in the 0 mM Ca^2+ Ringers. Myofibers were isolated directly into 2 mM, 1 mM and 0.5 mM Ringers for those experiments respectively. For experiments using less than 0.5 mM Ca^2+ myofibers were isolated in 0.5 mM Ca^2+ Ringers and then diluted with 0 mM EDTA-free Ca^2+ Ringers. For 0 mM experiments, myofibers were isolated in 0.5 mM Ca^2+ Ringers and then replaced with 0 mM Ca^2++EDTA Ringers just prior to imaging. Co-electroporation of wildtype annexin+wildtype annexin constructs was performed in one mouse foot, while the contralateral foot was co-electroporated with wildtype annexin+mutant annexin. All measurements were acquired from myofibers isolated from at least n≥2 mice, n≥3 myofibers per mouse at each Ca^2+ concentration. Area-Ca^2+ curves were fitted with a Hill Curve at Ca^2+ concentrations ranging from 0-2 mM. Kinetic parameters were calculated using Prism Graphpad.
as §1, with “(Demonbreun A R, Quattrocelli M, Barefield D Y, Allen M V, Swanson K E,” for “(Demonbreun”, “McNally E M. An actin-dependent annexin complex mediates plasma membrane repair in muscle. The Journal of cell biology. 2016; 213(6):705-18; Demonbreun A R, and McNally E M. DNA Electroporation, Isolation and Imaging of Myofibers. Journal of visualized experiments: JoVE.” for “McNally,”, “106(106):e53551;” for “Demonbreun et al., 2016b;”, “M, Quinonez M, Capote J, and Vergara J. DNA transfection of mammalian skeletal muscles using in vivo electroporation. Journal of visualized experiments: JoVE. 2009; 32(32)).” for “et al., 2009).”, “Vesicles were considered external if they were found outside the sarcolemma assessed in brightfield and fluorescent channels. All measurements were acquired from myofibers isolated from at least n≥3 mice, n≥3 myofibers per mouse.” left out

Isolated FDB fibers = test: Single cell Ca2+ and shortening measurements; conditions: annexin A6 overexpression vs control fibers
Method: Single cell Ca^2+ and shortening measurements. Isolated FDB fibers were plated on laminin coated glass-bottomed 35 mm dishes for one hour and then cultured overnight in DMEM with 10% FBS and 1% penicillin/streptomycin at 37° C. in a 10% CO2 incubator. One hour prior to data acquisition, the medium was removed and cells were incubated in Tyrode buffer (119 mM NaCl, 5 mM KCl, 25 mM HEPES, 2 mM CaCl2, 2 mM MgCl2) with 10 μM Indo-1 AM (TefLabs) for 1 hour at 37° C. in a 10% CO2 incubator. Dishes were then filled with Tyrode buffer, mounted on a custom stage and platinum pacing electrodes were inserted into the dish. Stimulation was elicited using a 701C high-powered stimulator controlled by the 950A software (Aurora Scientific). Stimulation was performed at 40 and 80 Hz, 5 ms pulse width, 100 ms duration. Ratiometric Ca^2+ signals were collected with two photomultiplier tubes and a FluoroDaq controller. Video sarcomere length was recorded with a high-speed camera and fast Fourier transform using the Aurora Scientific 900B-VSL system (Aurora, Ontario). Ten transients were collected over 20 seconds and averaged together per cell per frequency.

Anxa6^em1(GFP) myofibers = test: Laser injury of Anxa6em1(GFP) myofibers pretreated with recombinant annexin A6; conditions: 10-40 μg/ml recombinant protein pretreatment vs control
Method: Myofiber isolation. Flexor digitorum brevis (FDB) fibers were isolated with methods that were described previously in (Demonbreun and McNally, 2015; Demonbreun et al., 2016b; DiFranco et al., 2009). Briefly, fibers were dissociated in 0.2% BSA plus collagenase type II (Cat #17101, Thermo Fisher Scientific, Waltham, Mass.) for 60 minutes at 37 degrees in 10% CO2. Fibers were then moved to Ringers solution and placed on MatTek confocal microscopy dishes (Cat #P35G-1.5-14-C, MatTek, Ashland Mass.).
Multiphoton laser injury and imaging. Isolated fibers were subjected to laser-induced damage at room temperature using the Nikon A1R-MP multiphoton microscope. Imaging was performed using a 25×1.1 NA objective directed by the NIS-Elements AR imaging software. Green fluorescence protein (GFP) and FM 4-64 were excited using a 920 nm wavelength laser and emission wavelengths of 575 nm and 629 nm were collected respectively. […] Fluorescence intensity and cap area were measured using Fiji (NIH).
For recombinant protein studies, myofibers were isolated from mice as described above. […] Cap size was assessed from acquired images in FIJI. […] Images were acquired and quantitated as described above. FM 4-64 fluorescence at endpoint was measured using FIJI.

B1: annexin A6: annexin A6 with carboxyl-terminal turboGFP or tdTomato tag, expressed from plasmid electroporated into myofibers (protein, UniProt P14824 2-673, looked up)
Annexin A6: AKIAQGAMYRGSVHDFPEFDANQDAEALYTAMKGFGSDKESILELITSRSNKQRQEICQNYKSLYGKDLIEDLKYELTGKFERLIVNLMRPLAYCDAKEIKDAISGVGTDEKCLIEILASRTNEQMHQLVAAYKDAYERDLESDIIGDTSGHFQKMLVVLLQGTRENDDVVSEDLVQQDVQDLYEAGELKWGTDEAQFIYILGNRSKQHLRLVFDEYLKTTGKPIEASIRGELSGDFEKLMLAVVKCIRSTPEYFAERLFKAMKGLGTRDNTLIRIMVSRSELDMLDIREIFRTKYEKSLYSMIKNDTSGEYKKALLKLCGGDDDAAGQFFPEAAQVAYQMWELSAVSRVELKGTVCAANDFNPDADAKALRKAMKGIGTDEATIIDIVTHRSNAQRQQIRQTFKSHFGRDLMADLKSEISGDLARLILGLMMPPAHYDAKQLKKAMEGAGTDEKTLIEILATRTNAEIRAINEAYKEDYHKSLEDALSSDTSGHFRRILISLATGNREEGGENRDQAQEDAQVAAEILEIADTPSGDKTSLETRFMTVLCTRSYPHLRRVFQEFIKKTNYDIEHVIKKEMSGDVKDAFVAIVQSVKNKPLFFADKLYKSMKGAGTDEKTLTRVMVSRSEIDLLNIRREFIEKYDKSLHQAIEGDTSGDFMKALLALCGGED
modifications: C-terminal turboGFP or tdTomato tag
notes: annexin A6 with carboxyl-terminal turboGFP or tdTomato tag, expressed from plasmid electroporated into myofibers
myofibers
  Km1/2 (repair cap area as a function of Ca2+ concentration): 0.12 mM
Isolated FDB fibers; 40 or 80 Hz stimulation
  Ca2+ cycling (Indo-1): no differences
Isolated FDB fibers
  unloaded cell shortening: unaffected

B2: recombinant annexin A6: recombinant human annexin A6 protein with C-terminal HIS tag (5186-A6-050, R&D systems); mouse protein from Northwestern core in one cohort (protein, UniProt P08133 2-673, looked up)
Annexin A6: AKPAQGAKYRGSIHDFPGFDPNQDAEALYTAMKGFGSDKEAILDIITSRSNRQRQEVCQSYKSLYGKDLIADLKYELTGKFERLIVGLMRPPAYCDAKEIKDAISGIGTDEKCLIEILASRTNEQMHQLVAAYKDAYERDLEADIIGDTSGHFQKMLVVLLQGTREEDDVVSEDLVQQDVQDLYEAGELKWGTDEAQFIYILGNRSKQHLRLVFDEYLKTTGKPIEASIRGELSGDFEKLMLAVVKCIRSTPEYFAERLFKAMKGLGTRDNTLIRIMVSRSELDMLDIREIFRTKYEKSLYSMIKNDTSGEYKKTLLKLSGGDDDAAGQFFPEAAQVAYQMWELSAVARVELKGTVRPANDFNPDADAKALRKAMKGLGTDEDTIIDIITHRSNVQRQQIRQTFKSHFGRDLMTDLKSEISGDLARLILGLMMPPAHYDAKQLKKAMEGAGTDEKALIEILATRTNAEIRAINEAYKEDYHKSLEDALSSDTSGHFRRILISLATGHREEGGENLDQAREDAQVAAEILEIADTPSGDKTSLETRFMTILCTRSYPHLRRVFQEFIKMTNYDVEHTIKKEMSGDVRDAFVAIVQSVKNKPLFFADKLYKSMKGAGTDEKTLTRIMVSRSEIDLLNIRREFIEKYDKSLHQAIEGDTSGDFLKALLALCGGED
modifications: C-terminal His tag
notes: recombinant human annexin A6 protein with C-terminal HIS tag (5186-A6-050, R&D systems); mouse protein from Northwestern core in one cohort
Anxa6^em1(GFP) myofibers
  FM 4-64 dye uptake: reduction
  annexin A6GFP repair cap size: smaller; also recorded: reduced
